Experimental data reported in US20180216194A1.

What was measured:
Experiment in all cases: Bio-Plex bead immunoassay, multiplexed beads, single antigen, single detection antibody
[1] = biological target: recombinant CEACAM-1 protein (R&D Systems DuoSet Cat. # DY2244) (human) (UniProt P13688)
[2] = biological target: recombinant HSP27 protein (R&D Systems DuoSet Cat. # DY1580) (human) (UniProt P04792)
[3] = biological target: recombinant MIA protein (R&D Systems DuoSet Cat. # DY2050) (human) (UniProt Q16674)
[4] = biological target: recombinant MIC-1 protein (R&D Systems DuoSet Cat. # DY957) (human) (UniProt Q99988)
[5] = biological target: recombinant SPON1 protein (R&D Systems Cat. # 3135-SP/CF) (Homo sapiens (Human)) (UniProt Q9HCB6)
[6] = biological target: recombinant OPN protein (R&D Systems Cat. # 1433-OP-050) (Homo sapiens (Human)) (UniProt P10451)
UniProt P10451, sequence (P10451 other isoform, or with tags, fused parts or gaps limits assumed): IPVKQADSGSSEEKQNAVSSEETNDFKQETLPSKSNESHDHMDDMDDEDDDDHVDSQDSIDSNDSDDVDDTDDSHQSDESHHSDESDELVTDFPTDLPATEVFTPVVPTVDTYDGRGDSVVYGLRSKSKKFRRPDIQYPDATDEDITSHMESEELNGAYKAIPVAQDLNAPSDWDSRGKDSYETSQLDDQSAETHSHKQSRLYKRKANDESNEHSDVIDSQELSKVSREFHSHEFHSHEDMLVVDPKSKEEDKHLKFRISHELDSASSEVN

UniProt Q16674, sequence (Q16674 25-131 limits assumed): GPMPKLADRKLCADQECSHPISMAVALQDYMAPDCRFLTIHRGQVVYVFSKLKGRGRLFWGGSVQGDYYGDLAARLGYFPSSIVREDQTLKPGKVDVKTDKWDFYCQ
UniProt P13688, sequence (P13688 35-428 limits assumed): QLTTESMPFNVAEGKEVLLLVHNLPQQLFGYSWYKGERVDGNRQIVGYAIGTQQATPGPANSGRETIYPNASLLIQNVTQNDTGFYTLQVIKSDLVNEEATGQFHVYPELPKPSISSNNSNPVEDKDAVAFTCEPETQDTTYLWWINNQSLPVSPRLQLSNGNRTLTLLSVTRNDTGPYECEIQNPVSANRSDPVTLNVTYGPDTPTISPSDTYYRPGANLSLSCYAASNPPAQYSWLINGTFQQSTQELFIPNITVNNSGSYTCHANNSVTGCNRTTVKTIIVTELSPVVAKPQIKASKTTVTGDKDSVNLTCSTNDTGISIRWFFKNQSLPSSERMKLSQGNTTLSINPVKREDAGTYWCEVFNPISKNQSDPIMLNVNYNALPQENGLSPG
UniProt Q9HCB6, sequence (Q9HCB6 29-807 limits assumed): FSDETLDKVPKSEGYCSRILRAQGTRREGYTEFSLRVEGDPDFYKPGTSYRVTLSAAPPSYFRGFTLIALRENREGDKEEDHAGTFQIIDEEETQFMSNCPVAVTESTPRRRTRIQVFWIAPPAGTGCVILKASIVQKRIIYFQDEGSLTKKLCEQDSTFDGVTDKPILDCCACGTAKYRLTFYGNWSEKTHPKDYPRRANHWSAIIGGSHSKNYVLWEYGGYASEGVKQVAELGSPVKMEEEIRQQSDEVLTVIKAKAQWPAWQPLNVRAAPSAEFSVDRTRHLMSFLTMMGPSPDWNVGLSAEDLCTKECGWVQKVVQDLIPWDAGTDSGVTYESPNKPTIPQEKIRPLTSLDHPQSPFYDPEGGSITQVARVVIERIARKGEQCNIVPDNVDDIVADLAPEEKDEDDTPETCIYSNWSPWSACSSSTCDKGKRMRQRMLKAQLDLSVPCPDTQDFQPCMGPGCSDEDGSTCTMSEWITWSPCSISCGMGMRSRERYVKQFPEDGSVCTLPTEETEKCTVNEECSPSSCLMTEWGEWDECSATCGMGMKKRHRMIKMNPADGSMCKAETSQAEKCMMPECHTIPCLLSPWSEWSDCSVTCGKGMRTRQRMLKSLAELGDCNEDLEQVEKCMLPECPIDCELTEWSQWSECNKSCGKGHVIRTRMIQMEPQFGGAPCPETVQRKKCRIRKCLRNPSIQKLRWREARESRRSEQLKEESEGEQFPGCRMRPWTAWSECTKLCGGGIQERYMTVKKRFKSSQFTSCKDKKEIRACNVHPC
UniProt P04792, sequence (P04792 whole entry): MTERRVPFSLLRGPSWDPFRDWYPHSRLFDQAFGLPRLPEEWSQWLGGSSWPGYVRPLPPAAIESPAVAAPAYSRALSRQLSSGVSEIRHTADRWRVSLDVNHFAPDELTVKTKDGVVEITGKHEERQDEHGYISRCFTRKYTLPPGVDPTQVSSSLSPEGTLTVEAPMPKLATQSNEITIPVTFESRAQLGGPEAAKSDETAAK
UniProt Q99988, sequence (Q99988 197-308 limits assumed): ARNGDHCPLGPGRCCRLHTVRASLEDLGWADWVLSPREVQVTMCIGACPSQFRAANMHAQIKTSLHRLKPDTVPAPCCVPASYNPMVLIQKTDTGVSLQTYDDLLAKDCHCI

Substance | % cross-reactivity (single-detection antibody) [1] [%] | % cross-reactivity (single-detection antibody) [2] [%] | % cross-reactivity (single-detection antibody) [3] [%] | % cross-reactivity (single-detection antibody) [4] [%] | % cross-reactivity (single-detection antibody) [5] [%] | % cross-reactivity (single-detection antibody) [6] [%]
OPN capture antibody (R&D Systems Cat. # MAB14332, mouse) | 0 | 0 | 0 | 0 | 0 | 
MIC-1 capture antibody (R&D Systems DuoSet Cat. # DY957, mouse) | 0 | 0 | 0 |  | 0 | 0
CEACAM-1 capture antibody (R&D Systems DuoSet Cat. # DY2244, mouse) |  | 0 | 0.2 | 0 | 0 | 0
MIA capture antibody (R&D Systems DuoSet Cat. # DY2050, mouse) | 0.4 | 0.1 |  | 0.1 | 0.3 | 0.3
